Measurements reported in PMC5889391, “Lipid binding promotes the open conformation and tumor-suppressive activity of neurofibromin 2” (Nature Communications, 2018).
Residue numbers refer to the chain shown, from its start. Values belong to the molecule of their own block, whether it stands above or below them.

How the values were obtained:
[1] = target: T1, neurofibromin 2 (full-length, GST-tagged) (Homo sapiens, UniProt P35240, A585W/R588K); experiment: microscale thermophoresis; format: binding; settings: 20 mM Tris pH 7.5, 300 mM NaCl, 0.01% Tween-20, room temperature; protein labelled with maleimide NT-647
T1 construct: gene NF2; full-length, residues 1-595, N-terminal GST tag kept (pGEX-6P-1), E. coli BL21(DE3) Rosetta2
T1 sequence (P35240 1-595 A585W/R588K): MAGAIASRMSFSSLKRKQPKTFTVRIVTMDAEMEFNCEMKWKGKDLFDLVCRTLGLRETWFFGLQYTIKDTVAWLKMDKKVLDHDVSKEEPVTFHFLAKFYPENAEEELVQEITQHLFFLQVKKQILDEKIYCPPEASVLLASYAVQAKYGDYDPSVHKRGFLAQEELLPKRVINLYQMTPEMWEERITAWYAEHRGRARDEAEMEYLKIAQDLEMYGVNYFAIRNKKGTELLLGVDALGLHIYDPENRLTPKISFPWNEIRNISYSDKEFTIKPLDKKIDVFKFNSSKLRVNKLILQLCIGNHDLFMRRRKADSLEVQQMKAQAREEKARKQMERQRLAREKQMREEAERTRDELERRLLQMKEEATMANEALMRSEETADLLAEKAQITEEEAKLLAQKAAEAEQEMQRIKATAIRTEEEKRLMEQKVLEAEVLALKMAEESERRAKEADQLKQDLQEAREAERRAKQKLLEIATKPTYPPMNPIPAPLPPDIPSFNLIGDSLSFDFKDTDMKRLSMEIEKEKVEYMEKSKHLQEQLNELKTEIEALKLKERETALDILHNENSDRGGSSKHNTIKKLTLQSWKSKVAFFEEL

[2] = target: neurofibromin 2 tail tail (Homo sapiens) (UniProt P35240); settings: cited from earlier work
[3] = target: T2, N terminally GST-tagged full-length neurofibromin 2 lipid binding deficient mutant (T59V, W60E, R309Q, R310Q) (human, UniProt P35240 1-595, T59V | W60E | R309Q | R310Q, labeled with NT-647 red dye (maleimide conjugated cysteine reactive or NHS conjugated lysine reactive)); experiment: MST; unlabeled LATS1 69-100 (2 mM) titrated into 5 uM NT-647-labeled GST-neurofibromin 2; 20 mM Tris pH 7.5, 300 mM NaCl, 0.01% Tween-20; room temperature; settings: both partners purified
T2 construct: neurofibromin 2 (merlin), human, full length, residues 1-595, with four point mutations; Cloned into pGEX-6P-1; also called LBD; source: E. coli BL21(DE3) Rosetta2, purified (GST column); not shown: GST, N-terminal, kept
T2 sequence (looked up): T1 sequence (P35240 1-595 A585W/R588K) with T59V, W60E, R309Q, R310Q, W585A, K588R

[4] = target: T3, N terminally GST-tagged full-length neurofibromin 2, wild type (human, UniProt P35240 1-595, labeled with NT-647 red dye (maleimide conjugated cysteine reactive or NHS conjugated lysine reactive)); experiment: as above; settings: both partners purified
T3 construct: neurofibromin 2 (merlin), human, full length, residues 1-595; also called NF2; merlin; source: E. coli BL21(DE3) Rosetta2, purified (GST column); not shown: GST, N-terminal, kept
T3 sequence (looked up): T1 sequence (P35240 1-595 A585W/R588K) with W585A, K588R

[5] = target: T3, N terminally GST-tagged full-length …; experiment: MST; as a1, but LATS1 69-100 titrated into the neurofibromin 2/PIP2 complex (in the presence of PIP2); settings: both partners purified

neurofibromin 2 tail tail (Homo sapiens), sequence (P35240 506-595): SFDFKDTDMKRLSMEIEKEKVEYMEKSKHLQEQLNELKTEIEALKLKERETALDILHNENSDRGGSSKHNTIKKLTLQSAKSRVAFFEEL

Molecule: CCCCCCCC(=O)OC[C@H](COP(=O)(O)O[C@@H]1[C@H](O)[C@H](O)[C@@H](OP(=O)(O)O)[C@H](OP(=O)(O)O)[C@H]1O)OC(=O)CCCCCCC [PIP2diC8]
microscale thermophoresis [1]: No binding was observed for the artificially closed A585W-R588K (AR) mutants to h PIP2

Molecule: neurofibromin 2 head head (from UniProt P35240)
Kd [2]: 3000 nM

Kd [3]: 176 ± 34.5 µM | Kd [4]: 39.3 ± 4.25 µM | Kd [5]: 3.77 ± 0.72 µM
B1: LATS1 (residues 69-100) (domain or fragment, UniProt O95835 69-100, looked up)
chain: PKFGTHHKALQEIRNSLLPFANETNSSRSTSE
notes: Hippo pathway kinase LATS1, residues 69-100; it was unlabeled; also called LATS1 kinase; LAST1 residues 69-100
